Patent US20240166765A1 (ICONIC THERAPEUTICS, published 2024)
Residue numbers refer to the chain shown, from its start.

Tests used:
[1] = molecular target: T1, pig TF-His (pig (Sus scrofa)); assay: SPR (Biacore), antibody captured by anti-human IgG on CM5 chip, pig TF-His in solution, 1:1 model
T1 construct: also called pig TF ECD-His; pTF
T1 chain: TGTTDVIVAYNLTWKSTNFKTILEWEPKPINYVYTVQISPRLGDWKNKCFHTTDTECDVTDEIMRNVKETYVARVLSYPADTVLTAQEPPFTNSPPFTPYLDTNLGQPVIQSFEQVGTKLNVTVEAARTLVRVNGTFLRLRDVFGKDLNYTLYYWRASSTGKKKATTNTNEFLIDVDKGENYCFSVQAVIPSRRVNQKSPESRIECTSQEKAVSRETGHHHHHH

[2] = molecular target: T2, rabbit TF-His (rabbit (Oryctolagus cuniculus), UniProt P24055 33-250); assay: SPR (Biacore), antibody captured by anti-human IgG on CM5 chip, rabbit TF-His in solution, 1:1 model
T2 construct: also called rabbit TF ECD-His
T2 sequence (P24055 other isoform, or with tags, fused parts or gaps): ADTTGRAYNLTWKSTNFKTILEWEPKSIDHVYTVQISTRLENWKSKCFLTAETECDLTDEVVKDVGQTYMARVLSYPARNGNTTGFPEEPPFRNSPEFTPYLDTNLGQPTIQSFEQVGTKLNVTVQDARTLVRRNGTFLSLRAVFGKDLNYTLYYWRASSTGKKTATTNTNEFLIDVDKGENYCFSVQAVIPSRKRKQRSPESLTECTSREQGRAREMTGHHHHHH

B1: 25G1 (antibody, human IgG1, kappa, V domains shown)
VH: QVQLVQSGAEVKKPGASVKVSCKASGYTFRSYGISWVRQAPGQGLEWMGWVAPYSGNTNYAQKLQGRVTMTTDTSTSTAYMELRSLRSDDTAVYYCARDAGTYSPYGYGMDVWGQGTTVTVSS
VL: DIQMTQSPSTLSASVGDRVTITCRASHSIDSWLAWYQQKPGKAPKLLIYKASYLESGVPSRFSGSGSGTEFTLTISSLQPDDFATYYCQLFQSLPPFTFGGGTKVEIKR
notes: Human IgG1; also called antibody 25G1
Question: How did the Kd [1] turn out when B1 was run?
Answer: Its Kd is 2.6 nM.

Question: And the Kd [2]?
Answer: The Kd was 3.6 nM.

B2: 25G9 (antibody, human IgG1, kappa, V domains shown)
VH: B1 VH
VL: B1 VL with R24Q, H27Q, K50S, L90R
notes: Human IgG1; also called antibody 25G9
Question: How did the Kd [1] turn out when B2 was run?
Answer: Its Kd is 3.3 nM.

Question: What about the Kd [2] of the same binder?
Answer: Its Kd is 4.2 nM.

B3: 25A5-T (antibody, human IgG1, kappa, V domains shown)
VH: B1 VH with R30D, S31A, V51I, Y106F
VL: B1 VL with H27E, D30S, S31N, S52Y, Y53S, S56Y, L90Q, S93K
notes: Human IgG1
Question: What does the source list for B3?
Answer: Kd [1]: 4.5 nM; Kd [2]: 5.4 nM

B4: 25A5 (antibody, human IgG1, kappa, V domains shown)
VH: B1 VH with R30D, S31V, V51I, Y106F
VL: B1 VL with H27E, D30S, S31N, S52Y, Y53S, S56Y, L90Q, S93K
notes: Human IgG1; also called antibody 25A5
Question: What does the source list for B4?
Answer: Kd [1]: 5.2 nM; Kd [2]: 5.4 nM

B5: 43D7 (antibody, human IgG1, kappa, V domains shown)
VH: QVQLQQWGAGLLKPSETLSLTCAVYGGSLSGYYWSWIRQPPGKGLEWIGEIGASGSTRYNPSLKSRVTISVDTSKNQFSLKLSSVTAADTAVYYCARDTPYYYEGGYYYYMDVWGKGTTVTVSS
VL: EIVLTQSPGTLSLSPGERATLSCRASDSVDSSYLAWYQQKPGQAPRLLIYGAFSRANGIPDRFSGSGSGTDFTLTISRLEPEDFAVYYCQQAGVVPYTFGGGTKVEIKR
notes: Human IgG1; also called antibody 43D7
Question: For B5, which Kd [1] is on record?
Answer: The Kd was 8.8 nM.

Question: What about the Kd [2] of the same binder?
Answer: Its Kd is 6.8 nM.

B6: 43D8 (antibody, human IgG1, kappa, V domains shown)
VH: B5 VH
VL: B5 VL with D27Q, D30S, Y33F, F53Y, N57T
notes: Human IgG1; also called antibody 43D8; 43D8 mAb
Question: Which results are given for B6?
Answer: Kd [1]: 19.2 nM; Kd [2]: 7.7 nM
